Our source for the Kd, koff and kon values is CN109776681A.

This test deals with 人IgG蛋白 (human). Kind of test: BLI (Octet RED96), human IgG loaded on the sensor, nanobody at 50 μg/mL in solution.

B1: 抗免疫球蛋白G的Fc段的纳米抗体 (编号为I4的阳性克隆) (VHH)
VHH: QVQLVESGGGLVQAGGSLRLSCAASGGTFYSYAMGWFRQAPGKKREFVAAIRWTSGITYYADSVKDRFTISRDNAKNTVYLQMTGLKPEDTAVYYCALGPDNSDSYDYWGQGTQVTVSS
In the case of B1, the Kd was found to be 3.69 nM, the koff is 0.00157 s⁻¹ and the kon was 426000 M⁻¹ s⁻¹.
